T1: Macaca mulatta TF on RF/6A cells (Macaca mulatta (protein sequence stated …, UniProt P13726 33-294 (human entry)))
T1 construct: Endogenous TF of the RF/6A cell line; also called TF-positive Macaca mulatta RF/6A cells; cynomolgus TF
T1 chain: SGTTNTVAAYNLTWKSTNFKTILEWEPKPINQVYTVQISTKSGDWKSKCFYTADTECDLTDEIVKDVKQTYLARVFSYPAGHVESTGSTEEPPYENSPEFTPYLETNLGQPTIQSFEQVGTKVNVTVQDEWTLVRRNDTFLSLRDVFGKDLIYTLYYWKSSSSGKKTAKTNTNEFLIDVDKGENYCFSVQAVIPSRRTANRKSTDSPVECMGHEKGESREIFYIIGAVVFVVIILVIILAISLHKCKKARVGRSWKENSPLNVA


Assays:
human Tissue Factor (TF) [1] = molecular target: T2, human Tissue Factor (TF) (human, UniProt P13726 33-295); test: flow cytometry, MDA-MB-231 cells; competitor 20 nM FVII-Fc-Alexa488; antibody at 250 nM
T2 construct: also called hTF; CD142
Experimental: (§1) After another 1 hr incubation on ice, cells were washed, stained with a viability dye, and analyzed by flow cytometry. The Alexa488 fluorescence data from viable cells was summarized using median fluorescence intensity.

human Tissue Factor (TF) [2] = molecular target: T2, human Tissue Factor (TF); test: flow cytometry, MDA-MB-231 cells; competitor 20 nM FVII-Fc-Alexa488; antibody at 83 nM
Experimental: as §1

human Tissue Factor (TF) [3] = molecular target: T2, human Tissue Factor (TF); test: flow cytometry, MDA-MB-231 cells; competitor 20 nM FVII-Fc-Alexa488; antibody at 9.25 nM
Experimental: as §1

human Tissue Factor (TF) [4] = molecular target: T2, human Tissue Factor (TF); test: cell-based or functional assay
human Tissue Factor (TF) [5] = molecular target: T2, human Tissue Factor (TF); test: flow cytometry, A431 cells; antibody at 100 nM; competitor 20 nM 25A-Alexa488
Experimental: as §1

human Tissue Factor (TF) [6] = molecular target: T2, human Tissue Factor (TF); test: flow cytometry, A431 cells; antibody at 100 nM; competitor 20 nM 43Ea-Alexa488
Experimental: as §1

human Tissue Factor (TF) [7] = molecular target: T2, human Tissue Factor (TF); test: flow cytometry, MDA-MB-231 cells; competitor 20 nM FVII-Fc-Alexa488; antibody at 28 nM
Experimental: as §1

human Tissue Factor (TF) [8] = molecular target: T2, human Tissue Factor (TF); test: cell-based or functional assay; remark: listed apart in the source
human Tissue Factor (TF) [9] = molecular target: T2, human Tissue Factor (TF); test: cell-based or functional assay; remark: listed apart in the source
E. coli-derived TF = molecular target: T3, E. coli-derived TF (human (Example 17 does not restate the …, UniProt P13726 33-251)); test: protein ELISA, plate coated with E. coli-derived TF-His, antibody titrated, HRP secondary, luminescence
T3 construct: also called E. coli-derived TF-His; E. coli-derived TF protein
Experimental: (§2) Plates coated with Expi293- or E. coli-derived TF-His were incubated with increasing concentrations of antibodies.

Expi293-derived TF-His = molecular target: T4, Expi293-derived TF-His (human (Example 17 does not restate the …, UniProt P13726 33-251)); test: protein ELISA, plate coated with Expi293-derived TF-His, antibody titrated, HRP secondary, luminescence
T4 construct: Glycosylated TF ECD-His6 from Expi293 cells; also called Expi293-derived TF protein; TF ECD-His6
Experimental: as §2

[10] = molecular target: T1, Macaca mulatta TF on RF/6A cells; test: flow cytometry, IgG1 titrated on TF-positive Macaca mulatta RF/6A cells, 4-parameter fit
Experimental: After 2 washes, dead cells were labeled with TO-PRO-3 Iodide (ThermoFisher Scientific) and samples were analyzed on a CytoFLEX flow cytometer (Beckman Coulter, Brea, CA, USA) or Novocyte flow cytometer (ACEA Biosciences, San Diego, CA, USA). The median fluorescence intensities (MFIs) at each dilution were plotted and cell EC₅₀'s were derived using a 4-parameter binding model in Prism (GraphPad, La Jolla, CA, USA).

| Binder | % FVIIa (human Tissue Factor (TF) [1]) | % FVIIa (human Tissue Factor (TF) [2]) | % FVIIa (human Tissue Factor (TF) [3]) | % FXa at 12.5 nM antibody (human Tissue Factor (TF) [4]) | % FXa at 25 nM antibody (human Tissue Factor (TF) [4]) | % FXa at 50 nM antibody (human Tissue Factor (TF) [4]) | % FXa at 100 nM antibody (human Tissue Factor (TF) [4]) | % 25A binding (human Tissue Factor (TF) [5]) | % 43Ea binding (human Tissue Factor (TF) [6]) | % FVIIa (human Tissue Factor (TF) [7]) | % GM-CSF at 2.56 nM antibody (human Tissue Factor (TF) [8]) | % GM-CSF at 6.4 nM antibody (human Tissue Factor (TF) [8]) | % GM-CSF at 16 nM antibody (human Tissue Factor (TF) [8]) | % GM-CSF at 40 nM antibody (human Tissue Factor (TF) [8]) | % GM-CSF at 100 nM antibody (human Tissue Factor (TF) [8]) | % IL8 at 2.56 nM antibody (human Tissue Factor (TF) [9]) | % IL8 at 6.4 nM antibody (human Tissue Factor (TF) [9]) | EC50 (E. coli-derived TF) | EC50 (Expi293-derived TF-His) | EC50 [10] | also measured |
| --- | --- | --- | --- | --- | --- | --- | --- | --- | --- | --- | --- | --- | --- | --- | --- | --- | --- | --- | --- | --- | --- |
| 29D (antibody, human IgG1, V domains shown, Human IgG1; also called antibody designated 29D) VH: QVQLVESGGGVVQPGRSLRLSCAASGFTFHSRGMHWVRQAPGKGLEWVAVITYDGINKYYADSVEGRFTISRDNSKNTLYLQMNSLRAEDTAVYYCARDGVYYGVYDYWGQGTLVTVSS VL: not shown | 3% | 3% | 6% | 85% | 77% | 75% | 75% | 70% | 64% | 4% | 38% | 15% | 7% | 6% | 5% | 27% | 6% | – | – | – | % IL8 at 16 nM antibody (human Tissue Factor (TF) [9]): 2%; % IL8 at 40 nM antibody (human Tissue Factor (TF) [9]): 2%; % IL8 at 100 nM antibody (human Tissue Factor (TF) [9]): 1% |
| 29E (antibody, human IgG1, V domains shown, Human IgG1; also called antibody designated 29E) VH: QVQLVESGGGVVQPGRSLRLSCAASGFTFRSYGMHWVRQAPGKGLEWVAVITYDGINKYYADSVEGRFTISRDNSKNTLYLQMNSLRAEDTAVYYCARDGVYYGVYDYWGQGTLVTVSS VL: not shown [29E, listing 1 of 2 here] | – | – | – | – | – | – | – | – | – | – | – | – | – | – | – | – | – | 0.68 nM | 0.98 nM | 0.53 nM | – |
| 29E (antibody, human IgG1, V domains shown, Human IgG1; also called antibody designated 29E) VH: QVQLVESGGGVVQPGRSLRLSCAASGFTFRSYGMHWVRQAPGKGLEWVAVITYDGINKYYADSVEGRFTISRDNSKNTLYLQMNSLRAEDTAVYYCARDGVYYGVYDYWGQGTLVTVSS VL: not shown [29E, listing 2 of 2 here] | 2% | 2% | 5% | 81% | 68% | 63% | 66% | 96% | 85% | 3% | 33% | 9% | 5% | 6% | 6% | 33% | 5% | – | – | – | % IL8 at 16 nM antibody (human Tissue Factor (TF) [9]): 2%; % IL8 at 40 nM antibody (human Tissue Factor (TF) [9]): 2%; % IL8 at 100 nM antibody (human Tissue Factor (TF) [9]): 2% |
| 25A (antibody, human IgG1, V domains shown, Human IgG1; also called antibody designated 25A) VH: QVQLVQSGAEVKKPGASVKVSCKASGYTFDVYGISWVRQAPGQGLEWMGWIAPYNGNTNYAQKLQGRVTMTTDTSTSTAYMELRSLRSDDTAVYYCARDAGTYSPFGYGMDVWGQGTTVTVSS VL: DIQMTQSPSTLSASVGDRVTITCRASQSISSWLAWYQQKPGKAPKLLIYKASSLESGVPSRFSGSGSGTEFTLTISSLQPDDFATYYCQQFQSLPPFTFGGGTKVEIK | – | – | – | – | – | – | – | – | – | – | – | – | – | – | – | – | – | 0.35 nM | 0.54 nM | 0.43 nM | – |
| 25G1 (antibody, human IgG1, V domains shown, Human IgG1; also called antibody designated 25G1) VH: QVQLVQSGAEVKKPGASVKVSCKASGYTFRSYGISWVRQAPGQGLEWMGWVAPYSGNTNYAQKLQGRVTMTTDTSTSTAYMELRSLRSDDTAVYYCARDAGTYSPYGYGMDVWGQGTTVTVSS VL: DIQMTQSPSTLSASVGDRVTITCRASHSIDSWLAWYQQKPGKAPKLLIYKASYLESGVPSRFSGSGSGTEFTLTISSLQPDDFATYYCQLFQSLPPFTFGGGTKVEIK | – | – | – | – | – | – | – | – | – | – | – | – | – | – | – | – | – | 0.31 nM | 0.42 nM | 0.27 nM | – |
| 25A3 (antibody, human IgG1, V domains shown, Human IgG1; also called antibody designated 25A3) VH: QVQLVQSGAEVKKPGASVKVSCKASGYTFDVYGISWVRQAPGQGLEWMGWIAPYSGNTNYAQKLQGRVTMTTDTSTSTAYMELRSLRSDDTAVYYCARDAGTYSPFGYGMDVWGQGTTVTVSS VL: DIQMTQSPSTLSASVGDRVTITCQASQSINNWLAWYQQKPGKAPKLLIYKAYNLESGVPSRFSGSGSGTEFTLTISSLQPDDFATYYCQLFQSLPPFTFGGGTKVEIK | – | – | – | – | – | – | – | – | – | – | – | – | – | – | – | – | – | 0.36 nM | 0.47 nM | 0.27 nM | – |
| 54E (antibody, human IgG1, V domains shown, Human IgG1; also called antibody designated 54E) VH: QVQLVQSGAEVKKPGASVKVSCKASGYTFANYYMHWVRQAPGQGLEWMGIINPSGGITVYAQKFQGRVTMTRDTSTSTVYMELSSLRSEDTAVYYCARGGSKVAALAFDIWGQGTMVTVSS VL: DIQMTQSPSSLSASVGDRVTITCQASQDISNSLNWYQQKPGKAPKLLIYDASNLETGVPSRFSGSRSGTDFTFTISSLQPEDIATYYCQQYNFHPLTFGGGTKVEIK [54E, listing 1 of 2 here] | 2% | 3% | 11% | 53% | 44% | 41% | 42% | 99% | 96% | 3% | 38% | 10% | 5% | 5% | 5% | 48% | 8% | – | – | – | % IL8 at 16 nM antibody (human Tissue Factor (TF) [9]): 3%; % IL8 at 40 nM antibody (human Tissue Factor (TF) [9]): 2%; % IL8 at 100 nM antibody (human Tissue Factor (TF) [9]): 2% |
| 54E (antibody, human IgG1, V domains shown, Human IgG1; also called antibody designated 54E) VH: QVQLVQSGAEVKKPGASVKVSCKASGYTFANYYMHWVRQAPGQGLEWMGIINPSGGITVYAQKFQGRVTMTRDTSTSTVYMELSSLRSEDTAVYYCARGGSKVAALAFDIWGQGTMVTVSS VL: DIQMTQSPSSLSASVGDRVTITCQASQDISNSLNWYQQKPGKAPKLLIYDASNLETGVPSRFSGSRSGTDFTFTISSLQPEDIATYYCQQYNFHPLTFGGGTKVEIK [54E, listing 2 of 2 here] | – | – | – | – | – | – | – | – | – | – | – | – | – | – | – | – | – | 0.38 nM | 0.96 nM | 1.28 nM | – |
| 1G (antibody, human IgG1, V domains shown, Human IgG1; also called antibody designated 1G) VH: EVQLLESGGGLVQPGGSLRLSCAASGFTFSSYAMAWVRQAPGKGLEWVSAISGSGGLTYYADSVKGRFTISRDNSKNTLYLQMNSLRAEDTAVYYCAKAPYGYYMDVWGKGTTVTVSS VL: not shown | 6% | 7% | 7% | 55% | 48% | 41% | 41% | 75% | 58% | 7% | 34% | 9% | 7% | 7% | 7% | 26% | 4% | – | – | – | % IL8 at 16 nM antibody (human Tissue Factor (TF) [9]): 3%; % IL8 at 40 nM antibody (human Tissue Factor (TF) [9]): 2%; % IL8 at 100 nM antibody (human Tissue Factor (TF) [9]): 2% |

— patent US20250361322A1 (ICONIC THERAPEUTICS, published 2025)
